Laboratory results reported in the supplement of paper PMC9170038.

Assays:
MS2 coat protein [1] = test: apparent KD of MS2 coat protein, switch ON state; designed switch direction (-1 OFF switch, 1 ON switch): -1; higher = weaker reporter binding; details: FMN input: 0 or 200 uM; Eterna round: R93 (includes R88 designs)
How it was run: (§1)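 Each design's apparent KD comes from the median of binding-curve fits to its normalised clusters. Those clusters carried RNA switches transcribed on-chip from Illumina sequencing clusters. SNAP-549-labelled MS2 coat protein was titrated onto them in twofold steps (0.7 or 1.5 nM to 3 µM; per step 0.8–1.5 h down to 10–20 min). Conditions were 100 mM Tris-HCl pH 7.5, 80 mM KCl, 4 mM MgCl2, without or with constant ligand.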

MS2 coat protein [2] = test: apparent KD of MS2 coat protein, switch OFF state (with FMN for OFF switches, without FMN for ON switches); designed switch direction (-1 OFF switch, 1 ON switch): -1; higher = weaker reporter binding; details: FMN input: 0 or 200 uM; Eterna round: R93 (includes R88 designs)
How it was run: as §1

| Sequence | apparent KD of MS2 coat protein (MS2 coat protein [1]) [nM] | apparent KD of MS2 coat protein (MS2 coat protein [2]) [nM] |
| --- | --- | --- |
| AAGAACUGAGGAUAUACAUGAGGAUCACCCAUGUAAAAGAAAGAAAAGGGAAAGAAAAGUAGAAGGCAGAAGAA [Nebmaatre Amenhotep III] | 36.9 | 42.8 |
| AAAAAACAUGAGGAUCACCCAUGUAAGGAUAUGCUCGAAAGUGCGAAAGCACAAACGAGCAGAAGGUACAAAAA [66%, Wbt, 45] | 34.7 | 51.9 |
| GGGUAACAUGAGGAUCACCCAUGUGAGGAUAUGCUAGGGAUGGAAGCCAGGCCAAAAAGCAGAAGGUACUAAAG [Janelle Amethyst 18 Mod 16 - Jieux - Exclusion 1] | 23.6 | 34.3 |
| AAAAAGGUAGGAUAUACAUGAGGAUCACCCAUGUGAAAGAAAAAUAAGAAAAGAAAGAGUAGAAGGACCAAAAA [JL JSci Mod] | 31 | 30.6 |
| GGAAAACAUGAGGAUCACCCAUGUAAGGAUAUGCUAAGGAAGGAAAAAAACCCACCAGGCAGAAGGUACUAAAG [Janelle Amethyst 18 Mod 4 - Jieux - Exclusion 1] | 23.1 | 47.2 |
| AAAGAUACAGGAUAUACAUGAGGAUCACCCAUGUGGAAUCUAAAAUGGGAAAAAGAAAGUAGAAGGGUAUAAAA [Ex 3 May 39] | 34 | 63.5 |
| AGUCAGAGAGGAUAUACAUGAAAAAAAAAAGUAAGAUCCCUACAUGAGGAUCACCCAUGUAGAAGGCUCUGACA [Ex2 Design 137: Sub-opt 1] | 60.5 | 26.8 |
| AGCAAACAUGAGGAUCACCCAUGUGAGGAUAUGAACGAAAUAAAAUAAAAAUAAAAGUUCAGAAGGCACGAGCA [Mat - Exclusion 1 - Eli mod - D26] | 27.3 | 37.4 |
| AGCUAGCGAGGAUAUGCGAACAUGUCAAAAGACGUGAAGGGACAUGAGGAUCACCCAUGUAGAAGGCGCUAGCA [JL 74% mod 4] | 24.7 | 29.6 |
| CUCAAGUGAGGAUAUACAAAAAGUAAAUAAGUAAAACAAAAGUAGAAGGCACAUGAGGAUCACCCAUGUAAAUA [JR_Exc004_Sub301] | 45.5 | 63.1 |
| AAAACGGUAGGAUAUACAAUUGAGAACUAGAUCGAAAAAAAACAUGAGGAUCACCCAUGUAGAAGGGCCAAAAA [Ex2 Malc#10] | 38.2 | 23.6 |
| GGGUAACAUGAGGAUCACCCAUGUGAGGAUAUCCUAGGGAUGGAAGCCAGGCCAAAAAGGAGAAGGUACUAAAG [Janelle Amethyst 18 Mod 17 - Jieux - Exclusion 1] | 54.2 | 72.4 |
| AAAAAGUGAGGAUAUACGCUGAAGAGUAGACACAACCAGGCGUAGAAGGCACAUGAGGAUCACCCAUGUCCAAA [Ex4 Malc#10] | 21.2 | 41.2 |
| GGCUGGCGAGGAUAUACAUGAGGAUCACCCAUGUGAGAGAAAAAAGUGAGAAAGAAAAGUAGAAGGCGCUGGCG [salish99-ex3-55] | 34.1 | 81.4 |
| AAGAAGACAGGAUAUACUAAAGAAAUGAAAAGAAAGAAAGAACAUGAGGAUCACCCAUGUAGAAGGGUCAAGAA [Sewahenre Senebmiu] | 66.2 | 45.1 |
| CUGGUGUCAGGAUAUGCAUAGCAGUGACCAAAACCCGGUCAGCAGAAGGGACAUGAGGAUCACCCAUGUUAAAG [Alatele] | 22.3 | 57.7 |
| AAAAAUCGAGGAUAUACAUGAGGAUCACCCAUGUCAGAAAAUGACUACACAAAAGAAAGUAGAAGGCGAUAAAA [Ex 3 May 18] | 29.4 | 30.3 |

| Sequence | apparent KD of MS2 coat protein (MS2 coat protein [1]) [nM] | apparent KD of MS2 coat protein (MS2 coat protein [2]) [nM] |
| --- | --- | --- |
| AAAAAGUCAGGAUAUAUAGGAAAAAUAAAAAAAAUAAAACUAUAGAAGGGACAUGAGGAUCACCCAUGUUAAAA [Ex 4 May 15] | 45.4 | 22.9 |
| AAGAAAGAAGGAUAUACAAGGAAGAAAGAAAAGAAAAGAAAACAUGAGGAUCACCCAUGUAGAAGGUCUUAGAA [EteRNA is fun!] | 19.5 | 13.8 |
| CUCAAGUUAGGAUAUGUAAGAAAAGAAGAGAAAGAAAAGAAACAGAAGGAACAUGAGGAUCACCCAUGUAAGAA [EteRNA is fun!] | 22.1 | 24.1 |
| AGCACGUCAGGAUAUACGAACACAAAGGGUAACAACAAGGGACAUGAGGAUCACCCAUGUAGAAGGGACUAGCA [Diamond 96] | 58.2 | 61.9 |
| AAAAAGGGAGGAUAUACAUGAGGAUCACCCAUGUAAAAAAACGCGGGAGGGAGGGAAGGUAGAAGGCCCAAAAA [Excls3-IV] | 20.3 | 23 |
| AAAAUGUUAGGAUAUGUGAAGGCGUCUGAUAGACGAGGCCUGCAGAAGGGACAUGAGGAUCACCCAUGUAAAAA [Mod 1 of Nando's Round 1 Power Srip] | 53.9 | 24.7 |
| AAAAAACAUGAGGAUCACCCAUGUGAGGAUAUCCUGGUUGAAAAAAAAAAAACAACCAGGAGAAGGCACAAAAA [EXCL-I] | 45.2 | 57.8 |
| AAAAAACAUGAGGAUCACCCAUGUAAGGAUAUGCUGAAAAACACUGGAAAACAGUGCAGCAGAAGGUACAAAAA [66%, Wbt, 34] | 21.1 | 36.1 |
| AGGGUACAUGAGGAUCACCCAUGUUAGGAUAUAGAAAAGAAAAGAAAAGAAAGAAGAACUAGAAGGGACAAGAA [Unas] | 34.8 | 41.3 |
| AGCAGUACAGGAUAUACAUGAGGAUCACCCAUGUGAAAAUAAAGUGGCGUACCACAAAGUAGAAGGGUACUGCA [Mat - Exclusion 3 - JL mod - D31] | 34.2 | 104 |
| GGUUUGCUAGGAUAUACAUGAGGAUCACCCAUGUGAGAGAAAAAAGUGAGAAAGAAAAGUAGAAGGAGCGGACG [salish99-ex3-122] | 68.2 | 66.4 |
| ACAAGAUCAGGAUAUACAUGAGGAUCACCCAUGUGAAAGAACGAUUAACGACCAGCAAGUAGAAGGGAUCAGGA [Ruby 82] | 20.5 | 28.5 |
| AAAAUGUGAGGAUAUCCGAAGGCGUCUGAUAGACGAGGCUAGGAGAAGGCACAUGAGGAUCACCCAUGUAAAAA [Banishment 11 - Jieux - Exclusion 4] | 78.8 | 137 |
| AAAACGGCAGGAUAUACAGAAGAGAUCACGAAAAAAAAAAAACAUGAGGAUCACCCAUGUAGAAGGGCCAAAAA [Ex2 Malc#4] | 117 | 66.3 |
| AAAAAGAGAGGAUAUACAUGAGGAUCACCCAUGUGACAUUAAAUAAAUAAAAUAAAGUGUAGAAGGCUCAAAAA [65%, Moding Exclusion3-cac2, 23] | 38.1 | 136 |
| CUCAUGUGAGGAUAUGUACGAAAAAAUAAAAAAAUAAAAGUACAGAAGGCACAUGAGGAUCACCCAUGUGAAAA [EX4 398: Minimal 11] | 42.5 | 24.3 |
| AGUCUGAGAGGAUAUACAUAGGAAAAAAAAGUAAGAUCCCUACAUGAGGAUCACCCAUGUAGAAGGCUCUGACA [Ex2 Design 142: Sub-opt 6] | 46.9 | 67.7 |
